From the supplement of paper PMC9170038 come the findings set out here.

This data set concerns MS2 coat protein. Nature of the data set: apparent KD of MS2 coat protein; designed switch direction (-1 OFF switch, 1 ON switch): -1; higher = weaker reporter binding. In outline:
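Designed RNA switches with common flanks were transcribed on Illumina chips by stalled E. coli RNA polymerase and titrated with SNAP-549-labelled MS2 coat protein, from 0.7 or 1.5 nM doubling to 3 µM, in Tris-HCl pH 7.5 buffer with KCl, MgCl2, BSA, DTT, tRNA and Tween-20. Steps lasted 0.8–1.5 h (lowest) to 10–20 min (highest). Titrations ran without input, with 200 uM small-molecule ligand, or with an oligonucleotide input. Normalised cluster fluorescence was curve-fitted, and apparent KD is the per-design median over clusters.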

Where [1] appears, read: input ligand: microRNA oligo, concentration not stated.
Where [2] appears, read: Eterna round: R95, input ligand: FMN 200 uM.
Setting [3] is: Eterna round: R95, input ligand: microRNA oligo, concentration not stated.
Setting [4] is: Eterna round: R95, input ligand: none.

On to “UACAUGAGGAUCACCCAUGUUUUGUCGUGUAUGGUAUUUAUCUAGGAUAUCAUAUUAUUUAGUUAUGAGAAGGAGAAUAUUAAU [JMF's solution 80] (Eterna round: R96, puzzle: Exclusion NG 3)”, for which the “apparent KD of MS2 coat protein” value is, setting by setting: (input ligand: FMN 200 uM) 24.9 nM; under setting [1], 12.7 nM; (input ligand: none) 19.3 nM.
As for “UACAUGAGGAUCACCCAUGUUUUGUCGUGUAUGGUAUUUAUCUAGGAUAUCAUGUUAUUUAGUUAUGAGAAGGAGAAUAUUAAU [JMF's solution 81] (Eterna round: R96, puzzle: Exclusion NG 3)”, the “apparent KD of MS2 coat protein” value was found to be 45.6 nM (input ligand: FMN 200 uM), 31.3 nM under setting [1] and 38.5 nM (input ligand: none).
In the case of “UACAUGAGGAUCACCCAUGUUUUGUCGUGUAUGGUAUUUAUCUAGGAUAUCAUUAUAUUUAUUUAUGAGAAGGAGAAUAUUAAU [JMF's solution 97] (Eterna round: R96, puzzle: Exclusion NG 3)”, the “apparent KD of MS2 coat protein” value (input ligand: FMN 200 uM) worked out at 29.9 nM, the “apparent KD of MS2 coat protein” value under setting [1] is 21.9 nM and the “apparent KD of MS2 coat protein” value (input ligand: none) was determined as 27.6 nM.
Take “UACCUGAGGCAAAGCUUUAGGCUUACAUGAGGAUCACCCAUGUAGGAUAUGGUAGGCAAAGCUUACCAGAAGGACAUGGAAAUU [Mat - Exclusion NG 3 - Mod of JL - D23] (Eterna round: R96, puzzle: Exclusion NG 3)”: the “apparent KD of MS2 coat protein” value is, setting by setting: (input ligand: FMN 200 uM) 398 nM; under setting [1], 68.1 nM; (input ligand: none) 86.8 nM.
In the case of “UAGAAAGGUAAGGAUAUCCUUGAGAAAGAAAGAGGAGAAGGUACCACAUGAGGAUCACCCAUGUGGCUCUCAAA [jl-ex6-4.57 Nando mod] (Eterna round: R97, puzzle: Exclusion 6)”, the “apparent KD of MS2 coat protein” value runs as follows: (input ligand: FMN 200 uM) 15.2 nM; (input ligand: none) 13.7 nM.
As to “UAGAAGCUCAGGGAGUGAGACAUGAGGAUCACCCAUGUGGUGGUAGGGAACAAGCUUUUUGCACGUACUUAUGAGGA [JR_SV3TOV1_Sub006] (puzzle: Sensor v3, turn-off variant 1)”, the “apparent KD of MS2 coat protein” value worked out at 367 nM under setting [2], 134 nM under setting [3] and 189 nM under setting [4].
“UAGAAGGUAGGAUAUACGAAUAAAUAGGGUAGUAAGAAGACACAUGAGGAUCACCCAUGUAGAAGGACCAAGAU [Mat - Exclusion 2 - Mod of my Tesla design - D33] (puzzle: Exclusion 2)”: the “apparent KD of MS2 coat protein” value under setting [2] came out at 33.5 nM, the “apparent KD of MS2 coat protein” value under setting [3] came out at 19.4 nM and the “apparent KD of MS2 coat protein” value under setting [4] was determined as 20.6 nM.
For the sequence “UAGAUGGGAGGAUAUACGUAGAUGCAGGUUCGUGUGGUGCUACAUGAGGAUCACCCAUGUAGAAGGCCCGUCUU [JL-ex2-2.29 Mayanne mod] (Eterna round: R96, puzzle: Exclusion 2)”, the “apparent KD of MS2 coat protein” value reads like this: (input ligand: FMN 200 uM) 69.4 nM; under setting [1], 14.1 nM; (input ligand: none) 18.4 nM.
Consider “UAGAUGGGAGGAUAUACGUAGAUGCAGGUUCGUGUGGUGCUACAUGAGGAUCACCCAUGUAGAAGGCCCGUCUU [JL-ex2-2.29 Mayanne mod] (puzzle: Exclusion 2)”, for which the “apparent KD of MS2 coat protein” value under setting [3] is 13.6 nM.
Turning to “UAGAUGGGAGGAUAUACGUAGAUGCAGGUUCGUGUGGUGCUACAUGAGGAUCACCCAUGUAGAAGGCCCGUCUU [Resubmit R3 JL-ex2-2.29] (Eterna round: R97, puzzle: Exclusion 2)”, the “apparent KD of MS2 coat protein” value worked out at 77.4 nM (input ligand: FMN 200 uM) and 18.4 nM (input ligand: none).
In the case of “UAGGUACAUGAGGAUCACCCAUGUGAGGAUAUAGAUGAAGAUUGCGAGAGGGAGAGGACUAGAAGGCACAGUGG [JR_Exclu1_Sub036] (puzzle: Exclusion 1)”, the “apparent KD of MS2 coat protein” value under setting [3] came to 30.9 nM.
For the sequence “UAGGUACAUGAGGAUCACCCAUGUGAGGAUAUAGUUGAAGAUUGCGAGAGGGAGAGGACUAGAAGGCACAGUGG [JR_Exclu1_Sub037] (puzzle: Exclusion 1)”, the “apparent KD of MS2 coat protein” value under setting [3] came to 40.9 nM.
In the case of “UAGGUACGAGGAUAUACAUAGAUACAGACACAUGUAGAUGUACAUGAGGAUCACCCAUGUAGAAGGCGUAUAUA [Mat - Same state - Mayanna Mod - D110] (Eterna round: R96, puzzle: Exclusion 2)”, the “apparent KD of MS2 coat protein” value under setting [1] came to 60.7 nM.
With “UAGUUACAUGAGGAUCACCCAUGUGAGGAUAUGAGUCAGUCACGGUGACGUGGCUGACUCAGAAGGCACAAAGG [Mat - Exclusion 1 - JL Mod - D38] (Eterna round: R97, puzzle: Exclusion 1)”, the “apparent KD of MS2 coat protein” value by setting is: (input ligand: FMN 200 uM) 430 nM; (input ligand: none) 126 nM.
For “UAUAAACAUGAGGAUCACCCAUGUGAGGAUAUCAAAACCAGAGCGGAUCUCUGGCCCAUGAGAAGGUGCAUGGU [ElNandoxlusion 8 - Jieux - Exclusion 1] (Eterna round: R97, puzzle: Exclusion 1)” the same measures were 137 nM and 26.2 nM.
Take “UAUAAGAUAGGAUAUACAGGCCCGUCUUCAUAUCGAUCCCGACAUGAGGAUCACCCAUGUAGAAGGAUCGUGAG [Mod 21 - Jieux - Exclusion 2] (Eterna round: R97, puzzle: Exclusion 2)”: the “apparent KD of MS2 coat protein” value was determined as 13.8 nM (input ligand: FMN 200 uM) and 13.7 nM (input ligand: none).
“UAUAAUUUUUUUUUUUUACAAGCUUUUUGCUCGUCUUAUACAUGAGGAUCACCCAUGUGGGUGAAAGAUAGAUUGUC [JMF's solution 2] (puzzle: Sensor v3, turn-off variant 2)”: the “apparent KD of MS2 coat protein” value reads like this: under setting [2], 37.7 nM; under setting [3], 15.5 nM; under setting [4], 41.2 nM.
“UAUACCCGAGGAUAUACAUGAGGAUCACCCAUGUAGUGAAAGCUCUAAGAGCGCUCAGGUAGAAGGCGGAUUAA [EX3 A.9] (Eterna round: R97, puzzle: Exclusion 3)”: the “apparent KD of MS2 coat protein” value was found to be 24.9 nM (input ligand: FMN 200 uM) and 18.8 nM (input ligand: none).
As for “UAUAUAUAGUAAGGAUAUGUAUAUAUGUUAUAAACAGAAGGUACUGACAUGAGGAUCACCCAUGUUUUAGUGUGGGCAUGUAGA [JMF's solution 59] (Eterna round: R96, puzzle: Exclusion NG 1)”, the “apparent KD of MS2 coat protein” value under setting [1] worked out at 53.8 nM.
As to “UAUAUGUCAGGAUAUUAGUAGUAAAUAAAUAAAAUUAUUACUGAGAAGGGACAUGAGGAUCACCCAUGUACCUU [Salish 062 v32] (Eterna round: R97, puzzle: Exclusion 4)”, the “apparent KD of MS2 coat protein” value is, setting by setting: (input ligand: FMN 200 uM) 16.1 nM; (input ligand: none) 15.5 nM.
For “UAUCAUGUAGGAUAUACGUAGCUAUGACCCUCGAGAACUAUACAUGAGGAUCACCCAUGUAGAAGGGCGACUUU [Eternabot (L1) Solution 34] (Eterna round: R97, puzzle: Exclusion 2)”, the “apparent KD of MS2 coat protein” value turned out to be 21.3 nM (input ligand: FMN 200 uM) and 17.2 nM (input ligand: none).
In the case of “UAUCCACAUGAGGAUCACCCAUGUGAGGAUAUGAUACUAUGUACUUCGGUACAUAGUAUCAGAAGGCACAGGUC [Ex1-3: 57] (puzzle: Exclusion 1)”, the “apparent KD of MS2 coat protein” value under setting [3] was 20.3 nM.
With “UAUCGGCGGACCGAGGCUUUUUGCUCGUCUUAUGCUACGACAUGAGGAUCACCCAUGUGGUGGUGGUCCGUUGUAGU [JL ViennaUCT Bitein mod 8] (puzzle: Sensor v3, turn-off variant 2)”, the “apparent KD of MS2 coat protein” value was 123 nM under setting [2], 15.2 nM under setting [3] and 107 nM under setting [4].
As for “UAUGGUAAAGUCAGGAUAUACGUGCAGAAUUCUAGGUAGAAGGGACAUGAGGAUCACCCAUGUAUGGUAGUGUU [Ex4 #44] (Eterna round: R97, puzzle: Brourd's mod of Exclusion 4)”, the “apparent KD of MS2 coat protein” value is 146 nM (input ligand: FMN 200 uM) and 104 nM (input ligand: none).
“UAUGUGUGAGGAUAUGGUAAAGAUAAGAUGAUGAAAGAACUCCAGAAGGCACAUGAGGAUCACCCAUGUAGAUG [JL-ex4-2.10 Jieux mod] (puzzle: Exclusion 4)”: the “apparent KD of MS2 coat protein” value under setting [2] stood at 53.8 nM, the “apparent KD of MS2 coat protein” value under setting [3] worked out at 37.2 nM and the “apparent KD of MS2 coat protein” value under setting [4] was found to be 32.2 nM.
For “UAUGUUGUUGUGAGGAUAUACUUAGUUUGACCGUAGUAGAAGGCACAUGAGGAUCACCCAUGUAGAUUUUUGGU [JR_BME4_Sub007] (puzzle: Brourd's mod of Exclusion 4)”, the “apparent KD of MS2 coat protein” value under setting [3] was 9.49 nM.
As for “UAUUAAACAUAGGAUAUCGAAUAUAUCAUUUAACGAGAAGGAUGAACAUGAGGAUCACCCAUGUGGUAUCAUGG [Mat - Exclusion 6 - JL Mod - D13] (puzzle: Exclusion 6)”, the “apparent KD of MS2 coat protein” value runs as follows: under setting [2], 196 nM; under setting [3], 269 nM; under setting [4], 410 nM.
Turning to “UAUUAACAAGUAAGAUCCCACAUGAGGAUCACCCAUGUGCUCGUCUUAUAAGGUACUGUGACGAAAGUCACGGUACC [Dup of Eli's R95 Sensor 3, v1 - 87] (Eterna round: R97, puzzle: Sensor, turn-off variant 1)”, the “apparent KD of MS2 coat protein” value (input ligand: FMN 200 uM) turned out to be 16.3 nM and the “apparent KD of MS2 coat protein” value (input ligand: none) turned out to be 16.5 nM.
“UAUUAACAAGUAAGAUCCCACAUGAGGAUCACCCAUGUGCUCGUCUUAUAAGGUACUGUGACGAAAGUCACGGUACC [Sensor 3, v1 - 87] (Eterna round: R96, puzzle: Sensor v3, turn-off variant 1)”: the “apparent KD of MS2 coat protein” value (input ligand: FMN 200 uM) came to 13.8 nM, the “apparent KD of MS2 coat protein” value under setting [1] stood at 367 nM and the “apparent KD of MS2 coat protein” value (input ligand: none) came to 16.9 nM.
For “UAUUAACAAGUAAGAUCCCACAUGAGGAUCACCCAUGUGCUCGUCUUAUAAGGUACUGUGACGAAAGUCACGGUACC [Sensor 3, v1 - 87] (puzzle: Sensor v3, turn-off variant 1)”, the “apparent KD of MS2 coat protein” value is 16.9 nM under setting [2], 953 nM under setting [3] and 13 nM under setting [4].
As for “UAUUAGCAAGCAAAUGGGUACAUGAGGAUCACCCAUGUGCUCGUCUUAUAAGGUACUGUGACGACAGUCACGGUACC [mod--Eli4] (Eterna round: R97, puzzle: Sensor, turn-off variant 1)”, the “apparent KD of MS2 coat protein” value was 24.5 nM (input ligand: FMN 200 uM) and 25.3 nM (input ligand: none).
